Reference: paper PMC12153270

Tested on: MBP-ComGC (soluble globular head) (Streptococcus sanguinis 2908?)
Test: EMSA
Settings: 2.5 mM Mg2+; 25 mM Tris-HCl pH 8, 2.5 mM MgCl2, 50 mM NaCl, room temperature 30 min, 120 ng pUC19 in 10 uL; 0.8% agarose in TAE

Substance: pUC19 plasmid
- binding: > 10 µM
